From US20260116958A1 (University of California, published 2026)
Like-named read-outs stand apart in the source and are kept apart here.

Assays:
[1] = molecular target: inactive BoNT/G (BoNT/Gi) (Clostridium botulinum) (UniProt Q60393); assay: flow cytometry, scFv on yeast
[2] = molecular target: inactive BoNT/G (BoNT/Gi) (Clostridium botulinum) (UniProt Q60393); assay: flow cytometry, scFv on yeast surface
[3] = molecular target: inactive BoNT/G (BoNT/Gi) (Clostridium botulinum) (UniProt Q60393); assay: FACS, scFv on yeast
[4] = molecular target: inactive BoNT/G (BoNT/Gi) (Clostridium botulinum) (UniProt Q60393); assay: scFv on yeast surface
active BoNT/G holotoxin [5] = molecular target: T1, active BoNT/G holotoxin (Clostridium botulinum, UniProt Q60393 2-1297); assay: KinExA, IgG
T1 sequence: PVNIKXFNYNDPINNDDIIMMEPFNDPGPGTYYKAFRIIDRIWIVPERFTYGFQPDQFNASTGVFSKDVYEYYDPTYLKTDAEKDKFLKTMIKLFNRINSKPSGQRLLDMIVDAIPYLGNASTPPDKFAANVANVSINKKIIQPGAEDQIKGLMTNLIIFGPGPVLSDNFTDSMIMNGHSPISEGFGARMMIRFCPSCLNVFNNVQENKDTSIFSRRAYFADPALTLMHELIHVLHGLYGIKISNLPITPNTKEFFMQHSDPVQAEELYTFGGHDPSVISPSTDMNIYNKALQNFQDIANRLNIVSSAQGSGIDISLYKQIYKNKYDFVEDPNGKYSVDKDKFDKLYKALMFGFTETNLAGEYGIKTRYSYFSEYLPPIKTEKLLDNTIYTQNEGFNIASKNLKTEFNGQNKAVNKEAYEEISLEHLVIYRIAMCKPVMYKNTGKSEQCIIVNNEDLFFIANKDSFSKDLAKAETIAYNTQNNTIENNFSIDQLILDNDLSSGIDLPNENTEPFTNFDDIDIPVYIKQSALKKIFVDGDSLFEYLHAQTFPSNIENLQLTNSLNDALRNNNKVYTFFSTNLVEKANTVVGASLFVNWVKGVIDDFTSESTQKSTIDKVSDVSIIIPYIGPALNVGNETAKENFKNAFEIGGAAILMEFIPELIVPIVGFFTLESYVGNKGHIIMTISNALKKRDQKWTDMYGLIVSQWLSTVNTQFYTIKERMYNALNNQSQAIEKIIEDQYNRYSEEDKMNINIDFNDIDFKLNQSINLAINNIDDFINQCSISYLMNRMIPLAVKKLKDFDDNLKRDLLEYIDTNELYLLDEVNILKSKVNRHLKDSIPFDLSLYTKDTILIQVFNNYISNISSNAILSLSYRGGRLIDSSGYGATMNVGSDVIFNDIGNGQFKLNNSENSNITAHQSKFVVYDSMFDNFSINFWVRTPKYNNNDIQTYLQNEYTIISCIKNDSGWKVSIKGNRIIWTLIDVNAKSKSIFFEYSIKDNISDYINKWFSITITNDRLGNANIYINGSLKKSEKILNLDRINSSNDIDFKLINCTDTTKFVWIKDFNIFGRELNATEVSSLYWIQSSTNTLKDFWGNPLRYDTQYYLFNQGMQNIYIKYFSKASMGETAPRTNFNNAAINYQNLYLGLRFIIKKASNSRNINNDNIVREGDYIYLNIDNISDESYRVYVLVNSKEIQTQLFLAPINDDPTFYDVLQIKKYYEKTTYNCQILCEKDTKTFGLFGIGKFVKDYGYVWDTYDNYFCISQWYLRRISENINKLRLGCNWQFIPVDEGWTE

active BoNT/G holotoxin [6] = molecular target: T1, active BoNT/G holotoxin; assay: KinExA, IgG; remark: listed apart in the source
[7] = molecular target: inactive BoNT/G (BoNT/Gi) (Clostridium botulinum) (UniProt Q60393); assay: titration on yeast-displayed scFv, flow cytometry, fit y = m1 + m2*M0/(m0+m3)
[8] = molecular target: T2, inactive BoNT/G (BoNT/Gi) (Clostridium botulinum, UniProt Q60393 1-1297); assay: FACS, scFv on yeast
T2 sequence: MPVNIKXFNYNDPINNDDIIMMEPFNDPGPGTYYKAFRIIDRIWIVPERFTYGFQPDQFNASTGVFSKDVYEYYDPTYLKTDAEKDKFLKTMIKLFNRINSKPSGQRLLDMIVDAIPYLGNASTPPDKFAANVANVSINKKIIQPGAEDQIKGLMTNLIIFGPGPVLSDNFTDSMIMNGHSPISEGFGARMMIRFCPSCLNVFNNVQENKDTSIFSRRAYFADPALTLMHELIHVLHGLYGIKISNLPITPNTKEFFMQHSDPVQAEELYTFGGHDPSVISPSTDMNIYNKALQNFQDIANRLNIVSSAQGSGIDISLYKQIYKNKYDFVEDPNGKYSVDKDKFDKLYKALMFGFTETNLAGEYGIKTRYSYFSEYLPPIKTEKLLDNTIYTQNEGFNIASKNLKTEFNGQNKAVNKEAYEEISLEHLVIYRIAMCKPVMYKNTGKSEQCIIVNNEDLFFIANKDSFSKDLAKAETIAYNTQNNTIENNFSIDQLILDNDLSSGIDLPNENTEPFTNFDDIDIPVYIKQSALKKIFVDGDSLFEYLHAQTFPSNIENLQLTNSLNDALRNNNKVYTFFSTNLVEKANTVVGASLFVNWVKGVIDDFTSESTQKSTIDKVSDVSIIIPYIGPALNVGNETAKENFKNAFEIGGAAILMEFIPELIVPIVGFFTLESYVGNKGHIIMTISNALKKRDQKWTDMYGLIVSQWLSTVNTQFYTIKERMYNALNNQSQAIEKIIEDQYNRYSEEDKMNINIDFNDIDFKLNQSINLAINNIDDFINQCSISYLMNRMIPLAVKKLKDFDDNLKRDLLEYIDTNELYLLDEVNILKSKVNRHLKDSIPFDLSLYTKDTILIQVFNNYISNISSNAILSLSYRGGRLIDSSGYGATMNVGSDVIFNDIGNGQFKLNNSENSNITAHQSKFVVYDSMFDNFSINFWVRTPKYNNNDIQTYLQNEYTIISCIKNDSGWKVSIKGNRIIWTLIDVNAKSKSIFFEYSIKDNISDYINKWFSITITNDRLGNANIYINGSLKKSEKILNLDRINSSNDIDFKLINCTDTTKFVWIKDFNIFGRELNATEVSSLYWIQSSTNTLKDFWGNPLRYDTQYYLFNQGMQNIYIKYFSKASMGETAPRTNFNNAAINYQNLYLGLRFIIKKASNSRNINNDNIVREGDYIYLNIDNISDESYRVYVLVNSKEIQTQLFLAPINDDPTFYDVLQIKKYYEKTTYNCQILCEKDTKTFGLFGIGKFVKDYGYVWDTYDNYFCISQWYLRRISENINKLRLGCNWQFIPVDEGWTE

[9] = molecular target: T2, inactive BoNT/G (BoNT/Gi); assay: titration on yeast-displayed scFv, flow cytometry, fit y = m1 + m2*M0/(m0+m3)

B1: hu6G9B10 scFv (scFv)
scFv: QVQLVQSGAEVKKPGASVKMSCKASGYTFTSYWMHWVRQAPGQGLEWIGYINPSTGYTEYNQKFKDRATLTADKSTSTAYMELRSLRSDDTAVYYCARGGNYVDYWGQGTTLTVSSVDLKSGGSTSDSGKPGSGEGSSGSARDIQMTQSPSTLSASVGERVTITCRASQDISSWLAWYQQKPGKAPKRLIYAVSTLQTGVPSRFSGSGSGTDLTLTINSLQPEDFATYYCQDLNSYPLTFGGGTKVEVK
Binder B1 has a Kd [1] of 2.35 nM and a fold improvement in affinity over hu6G9 WT [1] of 9 fold.

B2: Hu6G9.1 scFv (scFv)
scFv: QVQLVQSGAEVKKPGASVKMSCKASGYTFTSYWMHWVRQAPGQGLEWVGYINPSTGYTEYNQKFKDRATLTADKSTSTAYMELRSLRSDDTAVYYCARGGNYVDYWGQGTTLTVSSVDLKSGGSTSGSGKPGSGEGSSGSARDIQMTQSPSTLSASVGERVTITCRASHGISSWLAWYQQKPGKAPKRLIYAVSTLQTGVPSRFSDSGSGTDLTLTINSLQPEDFATYYCQDLNSYPLSFGGGTKVEIK
B2 gave a fold improvement over wild type hu6G9 [2] of 9 fold, a fold improvement in affinity over hu6G9 WT [1] of 9 fold and a Kd [3] of 2.04 nM.

B3: hu6G6 scFv (scFv)
scFv: QVQLVQSGAEVKKPGASVKLSCKASGFNIKDTYMHWVRQAPGQGLEWIGRIDPANGNTKYDPKFQGRATITADTSINTAYLELSRLRSDDTAVYYCASGPNYYGTTWFAYWGQGTTVTVSSVDLKSGGSTSGSGKPGSGEGSSGSAREIVLTQSPSTLSASVGDRVTITCRASHGISNYLAWYQQKPGRAPKLLIYKASTLHIGVPSRFSGSGSGTEFALTISSLQPDDFSTYYCQQYNSYLPHTFGQGTRLEIK
B3 was tested, and the Kd [1] was 23.2 nM, the Kd [4] was 5 nM and the fold improvement over parental 6G6 [4] was > 3 fold. For the same binder, the Kd [3] was 23 nM.

B4: hu6G6.1 IgG (antibody, V domains shown)
VH: QVQLVQSGAEVKKPGASVKLSCKASGFNIKDTYMHWVRQAPGQGLEWIGRIDPENGNTKYDPKFQGRATITAYKSINTAYLELSRLRSDDTAVYYCASGPNYYGTTWFAYWGQGTTVTVSS
VL: EIVLTQSPSTLSASVGDRVTITCRASHGISNYLAWYQQKPGRAPKLLIYKASTLHIGVPSRFSGSGSGTEFALTISSLQPDDFSTYYCQQYNSYLPHTFGQGTRLEIKR
In the case of B4, the Kd (active BoNT/G holotoxin [5]) is reported as 0.476 nM, the “fold improvement over hu6G6” value (active BoNT/G holotoxin [5]) is reported as 18 fold and the Kd (active BoNT/G holotoxin [6]) is reported as 0.47 nM.

B5: 6G9A2 (scFv, V domains shown)
VH: QVQLVQSGAEVKKPGASVKMSCKASGYTFTSYWMHWVRQAPGQGLEWIGYINPSTGYTEYNQKFKDRATLTADKSTSTAYMELRSLRSDDTAVYYCARGGNYVDYWGQGTTLTVSS
VL: DVVMTQSPSFLSASVGDRVTVTCRASQSIGSWLAWYQQKPGKAPKLLIYAASSLQSGVPSRFSASGSGTDFTLTISSLQPDDFATYFCHRLNSYPLTFGGGTKVEIK
B5 was tested, and the Kd [7] was 6.2 nM.

B6: Hu6G11.3 scFv (scFv, V domains shown)
VH: QVQLVQSGAEVAKPGASVKMSCKASGYTFTSYWMHWVRQAPGQGLEWIGYINPSTGYTEYNQKFKDRATLTADKSTSTAYMELSSLRSEDTAVYYCARGYFSFAYWGQGTLVTVSS
VL: EIVLTQSPSTLSASIGDRVTITCRASEGIYHWLAWYQQKPGKAPKLLIYKASSLASGAPSRFSGSGSGTDFSLTISSLQPEDSATYFCQQAHSFPPTFGGGTKVDIKR
B6 showed a Kd [8] of 0.32 nM.

B7: 6G9B9 (scFv, V domains shown)
VH: QVQLVQSGAEVKKPGASVKMSCKASGYTFTSYWMHWVRQAPGQGLEWIGYINPSTGYTEYNQKFKDRATLTADKSTSTAYMELRSLRSDDTAVYYCARGGNYVDYWGQGTTLTVSS
VL: DIQMTQSPSTLSASVGERVTITCRASQGISSWLAWYQQKPGKAPKRLIYAVSTLQTGVPSRFSGSGSGTDLTLTINSLQPEDFATYYCQHLNSYPLTFGGGTKVEIK
Binder B7 has a Kd [7] of 3.78 nM.

B8: hu6G7.1A5 (scFv, V domains shown)
VH: QVQLVQSGAEVKKPGASVKVSCKASDYSFTDYNIYWVRQAPGQGLEWIGYIDPYNGGTSYNQKFKGRATLTVDKSISTAYMELSRLRSDDTAVYYCALYGYDPDYIDYWGPGTTLTVSS
VL: DIVLTQSPASMAASPGQRVTITCSASSSVSYLHWFQQKPGQSPKLMIYGTSNLASGVPVRFSGSGSGTSYSLTINPMEAEDTATYYCQQRSSYPYTFGQGTKLEIK
In the case of B8, the Kd [7] is reported as 4.91 nM.

B9: hu6G7.1D6 (scFv, V domains shown)
VH: QVQPVQSGAEVKKPGASVKVSCKASDYSFTDYNIYWVRQAPGQGLEWIGYIDPYNGGTSYNQKYRGRATLTVDKSINTAYMELSRLRSDDTAVYYCALYGYDPDYIEYWGQGTTLTVSS
VL: DIVLTQSPASMAASPGQRVTITCSASSSVSYLHWFQQKPGQSPKLWIYSTSNLASGVPARFSGSGSGTDYTLTINPMEAEDTATYYCQQRSSYPYTFGQGTKLEIK
With B9 the Kd [7] was 5.03 nM.

B10: Hu6G7.1 scFv (scFv, V domains shown)
VH: QVQLVQSGAEVKKPGASVKVSCKASDYSFTDYNIYWVRQTPGQGLEWIGYIDPYNGGTSYNQKFKGRATLTVDKSISTAYMELSRLRSDDTAVYYCALYGYDPDYIDYWGQGTTLTVSS
VL: DIVLTQSPASMAVSPGQRVTITCSASSSVSYLHWFQQKPGQSPKLWIYSTSNLASGVPARFSGSGSGTDYTLTINPMEAEDTATYYCQQRSSYPYTFGQGTKLEIKR
In the case of B10, the Kd [8] is reported as 3.2 nM and the Kd [9] is reported as 3.2 nM.

B11: Hu6G10 IgG (antibody, V domains shown)
VH: QVQLVQSGAEVKKPGATVKISCKASGYSFTGYFMHWVRQAPGKGLEWIGRINPYNGDIIYNQNFKDRATLTVDKSTSTAYMELSSLRSEDTAVYYCASLFGLYYFDYWGQGTTLTVSS
VL: DVVMTQSPSSVSASVGDRVTITCRASQRISNHLNWYQQKPGKAPKRLIYAASSLESGVPSRFSGSGSGTEFTLTISSLQPEDFATYFCLQHNSYPYTFGQGTKVEIKR
For B11, the “fold improvement over 6G10 (IgG KD)” value (active BoNT/G holotoxin [5]) was 39 fold and the Kd (active BoNT/G holotoxin [6]) was 0.00836 nM.
